This data set relates to ONECUT2 (OC2) HOX domain. Kind of data set: SPR. Conditions: OC2 HOX fragment; DNA probe sequence not given.

Drawing on patent US20260015316, this text covers Kd for one substance.

With PEG10 promoter OC2 binding motif probe, the Kd came to 1 nM.
